Target: T1, recombinant human insulin-like growth factor-1 (rhIGF-1) (human, UniProt P05019 49-118)
T1 construct: Soluble protein used for crystallization, sedimentation equilibrium and NMR; It was uniformly 13C/15N labelled for the NMR complex with IGF-F1-1; also called human IGF-1; 13C/15N IGF-1
Experiment: NMR structure of the complex (figure legend)

T1 sequence (P05019 49-118): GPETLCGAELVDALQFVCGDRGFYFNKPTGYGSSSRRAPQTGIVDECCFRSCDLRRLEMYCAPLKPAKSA

B1: phage-derived IGF-1 antagonist peptide IGF-F1-1 (peptide)
peptide: RNCFESVAALRRCMYG
notes: Unlabelled peptide mixed in slight molar excess with 1.5 mM 13C/15N IGF-1 for NMR
Does B1 bind?
Result: binds

From patent publication US20060287510A1 (Genentech, published 2006)
